In US20240150422A1 one finds HEK-Blue IL-12 reporter assay, fold reduction in potency (fold (vs IL-12 Fc w.t.)) and HEK-Blue IL-12 reporter assay, fold reduction in EC50 value (fold (vs wild-type)) data, which are given here for 7 substances.

Sequence of IL-12 receptor on HEK-Blue IL-12 cells (InvivoGen) (human) (chain, as listed by the source limits assumed, chain 2 of 2, other chains not shown): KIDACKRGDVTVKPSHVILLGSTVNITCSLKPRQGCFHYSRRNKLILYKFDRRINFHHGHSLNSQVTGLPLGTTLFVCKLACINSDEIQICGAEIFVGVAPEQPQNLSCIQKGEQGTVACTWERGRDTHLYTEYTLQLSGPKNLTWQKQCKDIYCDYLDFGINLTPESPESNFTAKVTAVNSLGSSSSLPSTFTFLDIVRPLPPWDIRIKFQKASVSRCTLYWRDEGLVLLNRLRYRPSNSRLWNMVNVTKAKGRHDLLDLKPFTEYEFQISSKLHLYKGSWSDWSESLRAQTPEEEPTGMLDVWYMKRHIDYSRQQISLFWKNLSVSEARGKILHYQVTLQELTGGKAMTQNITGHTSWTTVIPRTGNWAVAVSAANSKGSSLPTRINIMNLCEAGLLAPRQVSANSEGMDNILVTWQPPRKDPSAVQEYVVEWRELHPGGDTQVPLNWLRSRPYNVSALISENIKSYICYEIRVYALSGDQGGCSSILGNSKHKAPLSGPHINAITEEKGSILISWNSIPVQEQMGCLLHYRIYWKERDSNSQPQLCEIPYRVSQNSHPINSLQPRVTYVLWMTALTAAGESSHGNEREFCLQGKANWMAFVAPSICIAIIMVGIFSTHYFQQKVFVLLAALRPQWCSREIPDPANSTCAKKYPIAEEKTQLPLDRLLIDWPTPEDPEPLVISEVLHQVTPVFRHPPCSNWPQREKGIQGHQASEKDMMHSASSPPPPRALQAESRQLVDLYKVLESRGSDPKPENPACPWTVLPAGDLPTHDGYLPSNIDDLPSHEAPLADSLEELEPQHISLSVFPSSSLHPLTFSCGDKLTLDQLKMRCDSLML

The assay has as its target IL-12 receptor on HEK-Blue IL-12 cells (InvivoGen) (human) (UniProt P42701). The experiment in a line: cell-based or functional assay.
Substance “IL-12 Fc double mutant Y40A/D126A (format of Example 1) (from UniProt P29459 23-219; P29460 23-328) (Fc fusion)” displayed an HEK-Blue IL-12 reporter assay, fold reduction in potency (fold (vs IL-12 Fc w.t.)) of 38.
Take “IL-12 Fc double mutant Y40A/K168A (Example 7) (from UniProt P29459 23-219; P29460 23-328) (Fc fusion)”: the HEK-Blue IL-12 reporter assay, fold reduction in EC50 value (fold (vs wild-type)) was found to be 67.
For “IL-12 Fc double mutant Y40A/K170A (Example 7) (from UniProt P29459 23-219; P29460 23-328) (Fc fusion)”, the HEK-Blue IL-12 reporter assay, fold reduction in EC50 value (fold (vs wild-type)) is 6540.
“IL-12 Fc double mutant Y40A/P127A (format of Example 1) (from UniProt P29459 23-219; P29460 23-328) (Fc fusion)” showed an HEK-Blue IL-12 reporter assay, fold reduction in potency (fold (vs IL-12 Fc w.t.)) of 40.
Take “IL-12 Fc double mutant Y40A/R129A (Example 7) (from UniProt P29459 23-219; P29460 23-328) (Fc fusion)”: the HEK-Blue IL-12 reporter assay, fold reduction in EC50 value (fold (vs wild-type)) is 44.
Turning to “IL-12 Fc quadruple mutant Y40A/T43A/D126A/P127A (format of Example 1) (from UniProt P29459 23-219; P29460 23-328) (Fc fusion)”, the HEK-Blue IL-12 reporter assay, fold reduction in potency (fold (vs IL-12 Fc w.t.)) was 451.
As for “IL-12 Fc triple mutant Y40A/D126A/P127A (format of Example 1) (from UniProt P29459 23-219; P29460 23-328) (Fc fusion)”, the HEK-Blue IL-12 reporter assay, fold reduction in potency (fold (vs IL-12 Fc w.t.)) came to 404.
